Source: the supplement of paper PMC9170038

Tested on: MS2 coat protein
Test: apparent KD of MS2 coat protein; designed switch direction (-1 OFF switch, 1 ON switch): 1; higher = weaker reporter binding
Outline: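 Designed RNA switches with common flanks were transcribed on Illumina chips by stalled E. coli RNA polymerase and titrated with SNAP-549-labelled MS2 coat protein, from 0.7 or 1.5 nM doubling to 3 µM, in Tris-HCl pH 7.5 buffer with KCl, MgCl2, BSA, DTT, tRNA and Tween-20. Steps lasted 0.8–1.5 h (lowest) to 10–20 min (highest). Titrations ran without input, with 200 uM small-molecule ligand, or with an oligonucleotide input. Normalised cluster fluorescence was curve-fitted, and apparent KD is the per-design median over clusters.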

[1] = Eterna round: R95, input ligand: FMN 200 uM
[2] = Eterna round: R95, input ligand: microRNA oligo, concentration not stated
[3] = Eterna round: R95, input ligand: none
[4] = input ligand: microRNA oligo, concentration not stated

Sequence | apparent KD of MS2 coat protein [1] [nM] | apparent KD of MS2 coat protein [2] [nM] | apparent KD of MS2 coat protein [3] [nM] | apparent KD of MS2 coat protein (input ligand: FMN 200 uM) [nM] | apparent KD of MS2 coat protein [4] [nM] | apparent KD of MS2 coat protein (input ligand: none) [nM]
GCAUCACAUGAGGAUCACCCAUGUCUUCGGAGCCGAGGAUAUGGUCACUGUAAACAGUGGCCAGAAGGCGGGAUGC [SS1 - Son of Teenbexe v1] (puzzle: Same State 1) | 30.2 | 41.5 | 61.3 | – | – | –
GCCAACUCAUGAGGAUAUGGCACCUUAUUGGUGCCAGAAGGCAUGUCUAUUGACAUGAGGAUCACCCAUGUAUUAUAGUUGGCA [Fiskers NG1ss - 23] (Eterna round: R96, puzzle: Same State NG 1) | – | – | – | 83.9 | 192 | 859
GCCAACUCAUGAGGAUAUGGCACCUUAUUGGUGCCAGAAGGCAUGUCUAUUGACAUGAGGAUCACCCAUGUAUUAUUGUUGGCA [Fiskers NG1ss - 24] (Eterna round: R96, puzzle: Same State NG 1) | – | – | – | 80 | 717 | 893
GCCCGACUCACAGGAUAUGUACCGCCCGAAACAACAGAAGGGUGAGAUCCGGCAUGCACUGACAUGAGGAUCACCCAUGUCCUU [Gebege] (Eterna round: R96, puzzle: Same State NG 1) | – | – | – | 520 | 311 | 765
GCCGCACAUGAGGAUCACCCAUGUAAUUACAUGGGAGGAUAUCAGUGCUCGAAAGAGCACUGAGAAGGCCUAAGGC [SS1 - Omei A] (puzzle: Same State 1) | 419 | 32.4 | 20.8 | – | – | –
GCCGCGUUUCGCGCCUACAUGAGGAUCACCCAUGUUUGUAGGCAGGAUAUCGUCCGCUCUGCGGGCGAGAAGGGCUGUUGUGGC [salish99_SSNG3_R04_022] (Eterna round: R96, puzzle: Same State NG 3) | – | – | – | 41.2 | 36.7 | 51.5
GCCGCGUUUCGCGCCUACAUGAGGAUCACCCAUGUUUGUGGGCAGGAUAUCGUCCGCUCUGCGGGCGAGAAGGGCUGUUGUGGG [salish99_SSNG3_R04_024] (Eterna round: R96, puzzle: Same State NG 3) | – | – | – | 231 | 159 | 215
GCGAGCGUACUUGCUACAUGAGGAUCACCCAUGUUCGUUGGACAGGAUAUGGUACCGUUUCGGUACCAGAAGGGUUCACAUGUA [JL SSNG3 3.77] (Eterna round: R96, puzzle: Same State NG 3) | – | – | – | 171 | 224 | 375
GCGCUACAUGAGGAUCACCCAUGUGCGAACGCACGAGGAUAUGCAUGGGCUAAUGCUGGUGCAGAAGGCGUGGCGC [Pin2Pin #8] (puzzle: Same State 1) | – | 23.8 | – | – | – | –
GCGGUAACUCACAUGAGGAUCACCCAUGUUCCGGAAACGGCACAGGAUAUCUGUCCGAAAAGGUCAGAGAAGGGUGAAAUCCGC [Fiskers NG3ss - 91] (Eterna round: R96, puzzle: Same State NG 3) | – | – | – | 641 | 290 | 115
GCGUUUAACGUAGGAUAUCGACCUACAUGAGGAUCACCCAUGUCUUUGUAUAGUUUUUUUUGUUACGAGAAGGACGUUUUGCAU [JR_SSNG2_Sub070] (Eterna round: R96, puzzle: Same State NG 2) | – | – | – | 75.1 | 95.2 | 122
GCGUUUAACGUAGGAUAUCGAGCUACAUGAGGAUCACCCAUGUCUUUGUAAAGUUUUUUUAAUUACGAGAAGGACGUUUUGCAU [JR_SSNG2_Sub072] (Eterna round: R96, puzzle: Same State NG 2) | – | – | – | 18.7 | 26.7 | 35.8
GCUACAUGAGGAUCACCCAUGUGUGCGUGGGAGUGAGUGGCUUAGGAUAUCUAUGACUUGAGUUGAGAGAAGGAGGGUUGCUGU [SS-NG3-LRO13] (Eterna round: R96, puzzle: Same State NG 3) | – | – | – | 70.9 | 53.6 | 79.3
GCUACAUGAGGAUCACCCAUGUGUGCGUGGGAGUGAGUGGCUUAGGAUAUCUAUGAUUUUAGUUGAGAGAAGGAGGAUUGCUGU [SS-NG3-LRO10] (Eterna round: R96, puzzle: Same State NG 3) | – | – | – | 193 | 140 | 175
GCUACCAAAGAAGCCUACAUGAGGAUCACCCAUGUAUGUAGGCAGGAUAUCGAUUGCAAAGCGAUCGAGAAGGGCUUAGGUAGC [Mat - Same State NG 3 - JL Mod - D92] (Eterna round: R96, puzzle: Same State NG 3) | – | – | – | 68.9 | 116 | 152
GCUACCAUUGAAGCCAACAUGAGGAUCACCCAUGUAUGUUGGCAGGAUAUCGAUUGCUUUGCGAUCGAGAAGGGCUAAGGUAGC [JL SSNG3 1.29] (Eterna round: R96, puzzle: Same State NG 3) | – | – | – | 120 | 153 | 171
GCUACCAUUGAUGCCUACAUGAGGAUCACCCAUGUAUGUAGGCAGGAUAUCGAUUGCUUUGCGAUCGAGAAGGGCUUAGGUAGC [JL SSNG3 1.31] (Eterna round: R96, puzzle: Same State NG 3) | – | – | – | 52.4 | 139 | 183
GCUAGAAAUAAUGCCAACAUGAGGAUCACCCAUGUAUGUUGGCAGGAUAUCGUUUGCUUUGCAAACGAGAAGGGCUAAACUAGC [Mat - Same State NG 3 - JL Mod - D7] (Eterna round: R96, puzzle: Same State NG 3) | – | – | – | 280 | 296 | 280
GCUAGAAUUAAAGCCAACAUGAGGAUCACCCAUGUAUGUUGGCAGGAUAUCGUUUGCAAAGCAAACGAGAAGGGCCAAACUAGC [Mat - Same State NG 3 - JL Mod - D2] (Eterna round: R96, puzzle: Same State NG 3) | – | – | – | 43.2 | 94.1 | 125
GCUAGAAUUAAAGCCAACAUGAGGAUCACCCAUGUAUGUUGGCAGGAUAUCGUUUGCAAAGCAAACGAGAAGGGCUAAACUAGC [Mat - Same State NG 3 - JL Mod - D4] (Eterna round: R96, puzzle: Same State NG 3) | – | – | – | 197 | 100 | 244
GCUAGGAAAGAAGCCAACAUGAGGAUCACCCAUGUAUGUUGGUAGGAUAUCGUAUGCAAAGCAUACGAGAAGGGCUAACCUAGC [Mat - Same State NG 3 - JL Mod - D74] (Eterna round: R96, puzzle: Same State NG 3) | – | – | – | 127 | 127 | 153
GCUAGUAUAAUUGCUAACAUGAGGAUCACCCAUGUAUGUUGGCAGGAUAUCGUUUGCAAAGCAAACGAGAAGGGCUAAACUAGC [Mat - Same State NG 3 - JL Mod - D14] (Eterna round: R96, puzzle: Same State NG 3) | – | – | – | 36.3 | 103 | 104
GCUCGAAUCAAAACCAACAUGAGGAUCACCCAUGUAUGUUGGUAGGAUAUCGUUUGCUUUGCAAACGAGAAGGACCAAACGAGC [SameState NG3 #2] (Eterna round: R96, puzzle: Same State NG 3) | – | – | – | 26.8 | 67 | 94.2
GCUCGAAUCACAGCCAACAUGAGGAUCACCCAUGUGUGUUGGUAGGAUAUCGUUUCUAAGGGAAACGAGAAGGGCCGAACGAGC [SameState NG3 #9] (Eterna round: R96, puzzle: Same State NG 3) | – | – | – | 31.5 | 39.2 | 52.1
GCUCGACGUGUUGUCUACAUGAGGAUCACCCAUGUAGGUGCGGAGGAUAUCUACGUGUUUUAUGUAGAGAAGGUCGUGUCGAGC [SameState NG3 #88] (Eterna round: R96, puzzle: Same State NG 3) | – | – | – | 15.1 | 15.5 | 17.2
GCUCGACUGAUGGCCUACAUGAGGAUCACCCAUGUGAUUGGGCAGGAUAUCUAGAUGCAGGAUGUAGAGAAGGGCCUGUCGAGC [SameState NG3 #44] (Eterna round: R96, puzzle: Same State NG 3) | – | – | – | 1170 | 194 | 349
